Columns and labels:
LR (Mac), LR 1–313 = target: T1, LR (Mac), LR 1–313 (Plenodomus lingam, UniProt Q9HGT7); experiment: X-ray crystallography, […] Å; assay type: binding; conditions: covalent; retinal Schiff base at K270; pH 7.0
T1 construct: gene ops; full-length 1-313, C-terminal polyhistidine tag, codon-optimised synthetic gene, expressed in Leishmania tarentolae (LEXSY), DDM; likely trimer; residues 42-286 resolved
T1 sequence (Q9HGT7 1-313): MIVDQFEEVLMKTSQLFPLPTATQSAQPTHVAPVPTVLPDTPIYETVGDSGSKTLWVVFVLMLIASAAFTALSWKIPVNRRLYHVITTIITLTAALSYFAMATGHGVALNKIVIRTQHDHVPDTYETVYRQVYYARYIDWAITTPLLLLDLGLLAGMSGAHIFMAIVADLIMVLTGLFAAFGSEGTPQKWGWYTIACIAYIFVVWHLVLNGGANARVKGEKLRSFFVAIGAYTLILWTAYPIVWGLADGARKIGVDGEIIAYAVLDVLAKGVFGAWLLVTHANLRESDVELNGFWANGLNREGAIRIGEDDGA

LR 49–313 = target: T2, LR 49–313 (Plenodomus lingam, UniProt Q9HGT7); experiment: time-resolved absorption spectroscopy (photocycle); assay type: binding; conditions: covalent; DDM micelles; 5 μM all-trans-retinal added at solubilization
T2 construct: gene ops; N-terminally truncated 49-313, C-terminal polyhistidine tag, codon-optimised synthetic gene, expressed in Leishmania tarentolae (LEXSY), DDM; mostly monomer
T2 sequence (Q9HGT7 49-313): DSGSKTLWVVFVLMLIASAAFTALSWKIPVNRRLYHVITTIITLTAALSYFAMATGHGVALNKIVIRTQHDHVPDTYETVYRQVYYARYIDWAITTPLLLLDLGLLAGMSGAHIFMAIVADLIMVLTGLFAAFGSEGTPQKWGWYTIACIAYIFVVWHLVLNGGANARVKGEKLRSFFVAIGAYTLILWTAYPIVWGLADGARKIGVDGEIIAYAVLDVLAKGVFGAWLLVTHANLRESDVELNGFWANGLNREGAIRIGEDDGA

[1] = target: Leptosphaeria rhodopsin LR (Mac), full-length (residues 1–313) (Leptosphaeria maculans); experiment: cross-linking; glutaraldehyde vapor for 30 min, then gradient SDS-PAGE 18.5-8%; protein in DDM micelles; untreated samples as control
[2] = target: Leptosphaeria rhodopsin LR (Mac), full-length (residues 1–313) (Leptosphaeria maculans); experiment: SEC; Superdex 200 Increase 10/300 GL, 0.05% DDM micelles; masses calculated from retention volume at pH 8.0 (results; the methods give a SEC buffer of pH 6.5, 0.2 M NaCl); trimer to monomers
[3] = target: Leptosphaeria rhodopsin LR, N-terminally truncated (residues 49–313) (Leptosphaeria maculans); experiment: cross-linking; glutaraldehyde vapor for 30 min, then gradient SDS-PAGE 18.5-8%; protein in DDM micelles; untreated samples as control
[4] = target: Leptosphaeria rhodopsin LR, N-terminally truncated (residues 49–313) (Leptosphaeria maculans); experiment: SEC; Superdex 200 Increase 10/300 GL, 0.05% DDM micelles; masses calculated from retention volume at pH 8.0 (results; the methods give a SEC buffer of pH 6.5, 0.2 M NaCl); trimer to monomers

In the case of CC1=C(/C=C/C(C)=C/C=C/C(C)=C/C=O)C(C)(C)CCC1 [ATR, all-trans-retinal], the “X-ray crystallography, 2.2 Å” value (LR (Mac), LR 1–313) is reported as “retinal chromophore covalently attached to the K270 on the TM7” and the “time-resolved absorption spectroscopy (photocycle)” value (LR 49–313) is reported as “Both full-length and truncated constructs of LR in DDM micelles exhibit almost similar relaxation time”.

“Leptosphaeria rhodopsin LR (Mac), full-length (residues 1–313) (natural protein)” gave a stoichiometry N [1] of under 3, a ratio between monomers and trimers (monomers:trimers) [2] of 0.4 and a stoichiometry N [2] of 3.

In the case of “Leptosphaeria rhodopsin LR, N-terminally truncated (residues 49–313) (domain or fragment)”, the stoichiometry N [3] is reported as under 3, the ratio between monomers and trimers (monomers:trimers) [4] is reported as 40 and the stoichiometry N [4] is reported as 3.

From paper PMC8245419, “Structure-based insights into evolution of rhodopsins” (Communications Biology, 2021)
